In patent US20150351390A1, “COMPOSITIONS AND METHODS FOR AUXIN-ANALOG CONJUGATION” (PIONEER HI-BRED INTERNATIONAL, INC., priority 2012, published 2015):

How the values were obtained:
[1] = LC-MS assay of GH3 conjugation of IAA with Asp or Glu; format: biochemical; details: for kcat (hrs−1) IAA-Asp: conjugation of IAA with Asp by recombinant GH3 protein, IAA-Asp product by LC-MS; for kcat (hrs−1) IAA-Glu: conjugation of IAA with Glu by recombinant GH3 protein, IAA-Glu product by LC-MS
Summary of the method: (§1)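 N-terminal His-tagged GH3 homologs, expressed in E. coli C41(DE3) and Ni-NTA purified, at 44 to 164 μg/mL incubated 3 h at 30 °C in 20 mM Tris-HCl pH 8.0, 5 mM MgCl2, 1 mM DTT, 5 mM ATP, 5 mM auxin (IAA, 2,4-D or dicamba) and 5 mM Asp or Glu. Conjugates quantified by LC-MS against standards after MeOH precipitation; kinetics from Michaelis-Menten fits of initial velocities.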

[2] = LC-MS assay of GH3 conjugation of 2,4-D with Asp or Glu; format: biochemical; details: 5 mM 2,4-D substrate; for kcat (hrs−1) 2,4-D-Asp: conjugation of 2,4-D with Asp by recombinant GH3 protein, 2,4-D-Asp product by LC-MS; for kcat (hrs−1) 2,4-D-Glu: conjugation of 2,4-D with Glu by recombinant GH3 protein, 2,4-D-Glu product by LC-MS
Summary of the method: as §1

| Molecule | kcat (hrs−1) IAA-Asp [1] | kcat (hrs−1) IAA-Glu [1] | kcat (hrs−1) 2,4-D-Asp [2] | kcat (hrs−1) 2,4-D-Glu [2] |
| --- | --- | --- | --- | --- |
| VvGH3-4: GH3 protein, accession XP_002263353 (protein, listed as Vitis vinifera) MEGKRLEYRGEEALKELEKFTAKADEVQENILKEIIARNCETEYLKKYMGGSKDVLEFKQSVPVITYKDIHPYIQRIANGEDSSLISGHPITEMLCSSGTSGGEPKMMPSIAEDLNRRTFLYNLIMPIMNQYIPGLDEGKAMFLYFVKAEMSTPCGLPARAVLTSYYKSKNFRCRVRDAFNDFTSPDQAILCTDSNQSMYCQLLAGLVHRHQVLRLGAVFASALLRAISFLERHWVHLCNDIRTGHLDSSITDPECRSSMSTILSSPNPHLADEIEEICSHPSWKGMLSQLWPRAKYIEAVITGSMAQYIPSLEYYSGGKLPLVCTMYASSECYFGVNMKPLCDPADVAFTLLPNMCYFEFIPLGENGTLLMDMDEEKGVPKEKLVDLVHVRLGCYYELVVTTFAGLNRYRIGDVLQVTGFHNRAPQFRFICRRNVVLSIDNDKTNEEDLHRSITMAKKLLEPYNALLVEYTSYADTSSLPGHYVLYWEITHCISTDSPSTPLDSKVLEECCIAVEEELDYIYRRCRTHDKSVGPLEIRLVQPGTFEDLMDLFISQGGSINQYKTPRCIKSSNALKLLNSNVEASFFSPRDPRWIP | 3.873 h⁻¹ | 16.309 h⁻¹ | 0.000 h⁻¹ | 0.018 h⁻¹ |
| AIGH3-12 (protein, listed as Arabidopsis lyrata) MKPISDINESFEKQLKYLTSDVKQIQDNLLEEIITPNTKTEYLQRFLIGRFDKDLFKKNVPIVTYEDIKPYLDRVVNGESSDVISARPITGFLLSSGTSGGAQKMMPWNNKYLDNLTFIYDLRMQVITKHVKGVEEGKGMMFLFTKQESMTPSGLPARVATSSYFKSDYFKHRPSNWYYSYTSPDEVILCPNNTQSLYCHLLCGLVQRDEVVRTGSIFASVMVRAIEVLKNSWEELCSNIRSGHLSNWVTDLGCQSSVSLVLGGPRPELADTIEEICNQKSWKGIVKRLWPNTKYIETVVTGSMGQYVPMLNYYCNDLPLVSTTYGSSETTFGINLDPLCKPEDVSYTFMPNMSYFEFIPMDGDNNDVVDLEDVKLGCTYEPVVTNFAGLYRMRVGDIVLVTGFYNNAPQFKFVRRENVVLSIDSDKTNEEDLFKAVSQAKLVLESSGLDLKDFTSYADTSTFPGHYVVYLEVDTKEGEEKKTAQFELDEEALSMCCLVMEESLDNVYKRCRFKDGSIGPLEIRVVRQGTFISLMDFFISQGASTGQYKTPRCIKSGKALQVLETCVVAKFFSS | 0.000 h⁻¹ | 12.925 h⁻¹ | 0.006 h⁻¹ | 0.057 h⁻¹ |
| OsGH3-6: GH3 protein, accession Q60EY1 (protein, listed as Oryza sativa) MAATAWGIRSSGIRGASPVMSACVSPAEVILGADHQQQMYCHLLCGLRRWDAVDCIRAPYAAALARALRLLQSKWRQLCDDLECGTVCADVVTDAAMRGAVQDGVLAGPCPELAGRVRRICERDDWRGVLRQLWPDARYISCVTTGTMEQYFPAIKHFAGEALPVLGTDYLASECAIGINLERTSPPEETTYVLLPRAAYFEFIPFDMDAAGRGAAAAEPVDIAGVEAGKTYELVATTFRGLYRYKVGDVVKIAGFHHSSPRLQFVTRAPPPQEHGEVLTERDVMAAMDTFQLMLKDGGEVIEFAAFIIDGDGGQRRRRCATIAVEVSNGSKLLDHERSAAFLRRCTAPLEGCLGGAYRLSRATGDVAPLEVAVVRPGTFDRLAEAAIRGGAPANQYKPPRSSGTGTSSMCCNPPWCAAAAQSLNQLLTSICLIVSLNQRQFLDRESNSGTDKVFISDSILNFQHWGGFSLRFDLQEESLTLYKDHPS | 0.000 h⁻¹ | 0.000 h⁻¹ | 0.000 h⁻¹ | 0.000 h⁻¹ |
| VvGH3-6: GH3 protein, accession XP_002268278 (protein, listed as Vitis vinifera) MLLSCDPHDNEAGLMLLEDLTTNANQVQLEVLEEILTQNANTEYLRGYLDGHSDKGLFKKKVPIVNYEDIKPHIERIANGEPSRIISAQPITELLTSSGTSGGQPKLMPSTAEDLDRKTFFYNLLIPVMNKYVDGLDQGKGMYLLFIKPEISTPSGLMARPVLTSYYKSSNFRNRPFNPFNVYTSPDETILCLDSKQSMYCQLLCGLVQRDEVLRVGAVFASAFLRAIKFLEDHWRELCSNIRTGCVSDWITDPSCRNAVSSFLSKPQPDLADFIEFECNGESWEGIIKRLWPRTKYIEVIVTGSMAQYIPTLEFYSGGLPLVSTMYASSECYYGINLKPLSKPSDVSYTLLPNMAYFEFLPVQKNNGEVTQQVQCNGGCIKKEGERVEIEVVGLVDVKVGHYYELVVTTFTGLYRYRTGDILMVTGFYNNAPQFRFVQRRNVVLSIDTDKTNEEDLLKAVTQAKLLLEPYGFLLTEYTSYADTSSIPGHYVLFWELKTRGNNDLSEPDHTIMEQCCSTVEESLDSVYRRCRRRDNSIGPLEIRIVKPGTFDALMDFCVSQGSSVNQYKTPRCIKSKEAIKILDSRVVGKVFSKKVPFWEPFKMETK | 111.443 h⁻¹ | 505.272 h⁻¹ | 0.385 h⁻¹ | 1.204 h⁻¹ |
| RcGH3-17: GH3 protein, accession XP_002531876 (protein, listed as Ricinus communis) MDGKKLEYKGEAALEEIEKLTEKADEVQESILREILIQNGQTEYLSKYIKGSKDVKEFKYCVPVTTYKDMYPYIQRIANGEDSSLITGRPITEMLCSSGTSAGEPKLMPSINEDLDRRTFIYNLVMPIMNQYISGLDEGKAMYLYFVKEEMSTPCGLPARTVLTSYYKSKHFKCRARDSFNDFTSPDQAILCKDSDQSMYCQLLSGLVYRHQVLRIGAVFASALLRAISFLERNWVHLCNDIRNGELDPMITDPECRSCMSMILSSPNPSLADEIEEICSRPSWKGILCLLWPRTKYIEAVVTGSMAQYVPSLKYYSERKLPLVCTMYASSECYFGVNLKPLSDPAEVSFTLMPNMCYFEFIPLGENGTLLMDVDEEEKVPIHKLVDLVHVRRGCYYELVVTTFAGLYRYRIGDVLQVTGFHNQAPQFRFICRRNVVLSIDNDKTNEEDLHKSISTAKKLLEPYNAILVEYTSYAETLVVPGHYVLYWEILHHSSVVNHNQTPLDAEVFQECCIAVEEELDYIYRRCRTHDKSIGPLEIRVVEPGTFEALMDLFIGQGGSINQYKTPRCIKSNAALMLLNSHVKASFFSARDPVWIP | 4.366 h⁻¹ | 10.433 h⁻¹ | 0.000 h⁻¹ | 0.027 h⁻¹ |
| AIGH3-7 (protein, listed as Arabidopsis lyrata) VLEDLTSNVTQLQDNEILTLNANTNYLQSFFRGRFDKEIFKKNVPVVTYDDPSNVISAQPITGFVLSSGTSGGAQKMMPWNEKYLDSCMIFGCINVKNVEKGKAMMFYFTKLESITPSGLPARVASSSYLKSNYFKNRPSNWYYTYTSPDELTLCPDNKQNLYCHLLCGLVQRNEVTRMGSIFASVMKELWSNIRSGQLSEWITDIVANTIEKICNQKCWKGIVTRLWPKAKYIETIVTGSMVQYVPTLNYYSNDMLPLISTIYASSETQFGLNLNPMCKPEDVSYTFMPNVSYFEFIPVDGDKNNVVDLADVKLGCSYEAVVTNFRIRVGDILVVTGFHNKAPQFRFIRRDNVVLSIDLDKTNEDDLFKAVNRGKLTLDSSDLMLAMLISPLSRDKNKDKKSKKHIELKQETFSECCLLMEDSLDEVYKNCRFKEEWTFDSLMDFFISQGASIGQYKTPRCIKSAKALEVIEKMW | 0.000 h⁻¹ | 0.000 h⁻¹ | 0.000 h⁻¹ | 0.000 h⁻¹ |
| SbEES08587: GH3 protein, accession EES08587 (protein, Sorghum bicolor) MSTSPAVLDHDHGHHRLLSSVSPPTTTTDSPATAMPPRAPSSLPPTIPACDPHDGPASLQLIEDLTTHAGAIQQRVLREILAMNAGTDYLRGFLGAGAEGRDADELAATFKDRVPVVEYEDVKPYIERIANGAPSSLISSKTITELLTSSGTSGGQPKLMPSTEEELDRKTFLYNLLVPVMNKYVEGLDKGRCMYLLFVKPEITTASGLVARPVLTSYYKSRHFRERPDSPYTRYTSPNEAILCPDSAQSMYAQLLCGLARRGEVLRVGAVFASAFLRAVKFLEAHWRALCDDIRAGRVDASRVTDAACRDAVARVVARPDPALADAIAAECEGSSSSSWRGIVRRLWPRTKYIDVIVTGSMAQYIPLLEFYGGGLPLVSTMYASSECYFGINLRPLDPPEDVAYTLLPNMCYYEFIKVEKDGEEAREDGKVVDLVDVEAGGYYELLVTTFTGLYRYRVGDILQVSGFHNAAPQFRFVHRRNVVLSVDTDKTSEDDLLRAVTAAKRLLAPLGGATILSEYTAYADTASIPGHYVLFWELTPTPPMPGDGDTAARVMAACCAEVEAGLDAVYQRCRSRDRSVGPLEIRVVSTGAFDALMDLCVSHGSSVNQYKTPRCIKHPDAIAVLEARVVGRFFSDTVPHWEPFNVVDTAAAGAAATTTPSLNEGAT | 10.251 h⁻¹ | 389.161 h⁻¹ | 0.044 h⁻¹ | 0.554 h⁻¹ |
